Experimental data taken from patent US20230220053A1 (published 2023).
Like-named read-outs stand apart in the source and are kept apart here.

Assays:
[1] = molecular target: T1, S1 protein of SARS-CoV-2 (recombinant, construct not stated) (SARS-CoV-2, UniProt P0DTC2 16-685); experiment: ELISA, S1 coated, IgG1 titrated, anti-human Fc HRP
[2] = molecular target: T2, RBD of SARS-CoV-2 spike protein S1 (recombinant, construct not stated) (SARS-CoV-2, UniProt P0DTC2 328-533); experiment: SPR (Biacore T200), IgG captured on protein A chip, RBD injected
T2 construct: also called SARS-COV-2, RBD; RBD-AF647

[3] = molecular target: T3, RBD of SARS-COV (ACRO Biosciences) (SARS-COV, UniProt P59594 306-527); experiment: ELISA, SARS-COV RBD coated, IgG titrated, anti-human Fc HRP
T3 construct: domain: RBD; also called RBD-SARS; SARS-COV, RBD

[4] = molecular target: T1, S1 protein of SARS-CoV-2 (recombinant, …); experiment: SPR (Biacore T200), IgG captured on protein A chip, S1 injected
[5] = molecular target: T4, S1 protein of SARS-COV (ACRO Biosciences) (SARS-COV, UniProt P59594 14-667); experiment: ELISA, SARS-COV S1 coated, IgG titrated, anti-human Fc HRP
T4 construct: domain: S1

[6] = molecular target: S protein of SARS-COV-2 (Sino Biologics) (SARS-CoV-2, UniProt P0DTC2 16-1213); experiment: ELISA, S protein (Sino Biologics) coated, anti-human Fc HRP
[7] = molecular target: T2, RBD of SARS-CoV-2 spike protein S1 …; experiment: ELISA, RBD coated, IgG1 titrated, anti-human Fc HRP
[8] = molecular target: T5, SARS-CoV-2-RBD (328-533)-Fc (SARS-CoV-2); experiment: SPR (Biacore T200), RBD captured on anti-human Fc chip, scFv injected
T5 construct: also called RBD-Fc

[9] = molecular target: T6, S1-Fc (SARS-CoV-2 S1 protein, Fc fusion) (SARS-CoV-2, UniProt P0DTC2 16-685); experiment: SPR (Biacore T200), S1 captured on anti-human Fc chip, scFv injected
[10] = molecular target: T2, RBD of SARS-CoV-2 spike protein S1 …
[11] = molecular target: T2, RBD of SARS-CoV-2 spike protein S1 …; experiment: ELISA, RBD coated, scFv titrated, anti-Flag HRP
[12] = molecular target: T1, S1 protein of SARS-CoV-2 (recombinant, …)
[13] = molecular target: T1, S1 protein of SARS-CoV-2 (recombinant, …); experiment: ELISA, S1 coated, scFv titrated, anti-Flag HRP
[14] = molecular target: T1, S1 protein of SARS-CoV-2 (recombinant, …); remark: listed apart in the source
[15] = molecular target: T1, S1 protein of SARS-CoV-2 (recombinant, …); remark: listed apart in the source
[16] = molecular target: T1, S1 protein of SARS-CoV-2 (recombinant, …); remark: listed apart in the source
[17] = molecular target: T6, S1-Fc (SARS-CoV-2 S1 protein, Fc fusion); experiment: SPR (Biacore T200), S1 captured on anti-human Fc chip, scFv injected; remark: listed apart in the source
[18] = molecular target: T5, SARS-CoV-2-RBD (328-533)-Fc; experiment: SPR (Biacore T200), RBD captured on anti-human Fc chip, scFv injected; remark: listed apart in the source

B1: 2020EP54-B12 IgG1 (antibody, V domains shown)
VH: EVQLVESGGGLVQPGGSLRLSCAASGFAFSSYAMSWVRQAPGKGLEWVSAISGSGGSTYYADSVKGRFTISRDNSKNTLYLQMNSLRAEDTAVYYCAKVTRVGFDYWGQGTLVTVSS
VL: SYELTQPPSVSVAPGKTARITCGGNNIGSKSVHWYQQKPGQAPVLVIYYDSDRPSGIPERFSGSNSGNTATLTISRVEAEDEADYYCQVWDSSSDVVFGGGTKLTVL
notes: also called 2020EP054-B12; EP054-B12, IgG1
EC50 [1]: 0.045 nM
Kd [2]: 6.4 nM
koff [2]: 0.00578 s⁻¹
kon [2]: 903000 M⁻¹ s⁻¹
binding result [3]: no binding (tested: 200 nM (highest concentration tested))
Kd [4]: 61.9 nM
koff [4]: 0.00507 s⁻¹
kon [4]: 82000 M⁻¹ s⁻¹
binding result [5]: no binding (tested: 200 nM (highest concentration tested))
EC50 [6]: 0.032 nM
EC50 [7]: 0.045 nM

B2: 2020EP54-E12 scFv (scFv)
scFv: EVQLVESGGGLVQPGGSLRLSCAVTGFIVSSNYMNWVRQAPGKGLEWVSVIYSGGTTYYADSVKGRFTISRDKSKNTLYLQMNNLRAEDTAMYYCATLGNDYGDYGTDYWGQGTLVTVSSGGGGSGGGGSGGGGSQLVLTQPPSVSVSPGQTASISCSGDRLGQKYTSWYQQRPGQSPVLIMYQDNKRPSGIPERFSGSNSGNTATLTISGIQSMDEADYYCQVWDSGSDHAVFGGGTQLTVL
notes: also called 2020EP054-E12
Kd [8]: 9.61 nM
koff [8]: 0.000469 s⁻¹
kon [8]: 48900 M⁻¹ s⁻¹
Kd [9]: 13.2 nM
koff [9]: 0.000687 s⁻¹
kon [9]: 51900 M⁻¹ s⁻¹
IC50 [10]: 6.69 nM
EC50 [11]: 0.486 nM
IC50 [12]: 6.58 nM
EC50 [13]: 0.737 nM
IC50 [14]: 8.57 nM

B3: 2020EP54-E12 IgG1 (antibody, V domains shown)
VH: EVQLVESGGGLVQPGGSLRLSCAVTGFIVSSNYMNWVRQAPGKGLEWVSVIYSGGTTYYADSVKGRFTISRDKSKNTLYLQMNNLRAEDTAMYYCATLGNDYGDYGTDYWGQGTLVTVSS
VL: QLVLTQPPSVSVSPGQTASISCSGDRLGQKYTSWYQQRPGQSPVLIMYQDNKRPSGIPERFSGSNSGNTATLTISGIQSMDEADYYCQVWDSGSDHAVFGGGTQLTVL
notes: also called 2020EP054-E12; EP054-E12, IgG1
EC50 [1]: 0.103 nM
binding result [3]: no binding (tested: 200 nM (highest concentration tested))
binding result [5]: no binding (tested: 200 nM (highest concentration tested))
IC50 [15]: 1.9 nM
EC50 [6]: 0.462 nM
IC50 [16]: 3.79 nM
EC50 [7]: 0.053 nM

B4: 2020EP54-E10 scFv (scFv)
scFv: QVQLVQSGAEVRKPGSSVKVSCKASGGTFSSFAISWVRQAPGQGLEWMGGIIPIFDTATYAQNFQGRVRMTADESTNTAYMELSSLTSEDTAVYYCARSTSYYDSRGDYKVGDFDYWGQGTLVTVSSGGGGSGGGGSGGGGSAIRMTQSPSSLSASVGDRVTITCQASQDISNYLNWYQQKPGKAPKLLIYDASNLETGVPSRFSGSGSGTDFTFTISSLQPEDIATYYCQQYDNLPLTFGGGTKVEIK
notes: also called 2020EP054-E10
Kd [8]: 1.89 nM
koff [8]: 0.000906 s⁻¹
kon [8]: 477000 M⁻¹ s⁻¹
Kd [9]: 3.35 nM
koff [9]: 0.00106 s⁻¹
kon [9]: 316000 M⁻¹ s⁻¹
IC50 [10]: < 1 nM
Kd [17]: 3.35 nM
koff [17]: 0.00106 s⁻¹
kon [17]: 316000 M⁻¹ s⁻¹
EC50 [11]: 0.16 nM
IC50 [12]: 4.69 nM
EC50 [13]: 0.154 nM
IC50 [14]: 4.94 nM
Kd [18]: 1.9 nM
koff [18]: 0.000906 s⁻¹
kon [18]: 477000 M⁻¹ s⁻¹
